Data published in article PMC6385590 (European journal of immunology, 2015).

Target: T1, interferon regulatory factor 8 (IRF8) (human (endogenous in CAL-1 and primary …, UniProt Q02556 1-426))
T1 sequence (looked up): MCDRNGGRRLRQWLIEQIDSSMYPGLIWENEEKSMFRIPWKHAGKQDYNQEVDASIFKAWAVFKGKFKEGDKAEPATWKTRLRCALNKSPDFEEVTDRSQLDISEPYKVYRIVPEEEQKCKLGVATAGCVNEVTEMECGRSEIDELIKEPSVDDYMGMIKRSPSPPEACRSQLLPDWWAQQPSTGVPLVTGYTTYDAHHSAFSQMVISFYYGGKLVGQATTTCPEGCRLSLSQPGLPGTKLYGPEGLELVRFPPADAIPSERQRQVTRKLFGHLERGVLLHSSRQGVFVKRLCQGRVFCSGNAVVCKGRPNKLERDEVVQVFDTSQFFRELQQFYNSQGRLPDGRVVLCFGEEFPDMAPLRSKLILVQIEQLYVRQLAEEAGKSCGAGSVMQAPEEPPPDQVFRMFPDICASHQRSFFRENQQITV
Experiment: proximity ligation

B1: interferon regulatory factor 5 (IRF5) (natural protein, UniProt Q13568 1-498, looked up)
chain: MNQSIPVAPTPPRRVRLKPWLVAQVNSCQYPGLQWVNGEKKLFCIPWRHATRHGPSQDGDNTIFKAWAKETGKYTEGVDEADPAKWKANLRCALNKSRDFRLIYDGPRDMPPQPYKIYEVCSNGPAPTDSQPPEDYSFGAGEEEEEEEELQRMLPSLSLTEDVKWPPTLQPPTLRPPTLQPPTLQPPVVLGPPAPDPSPLAPPPGNPAGFRELLSEVLEPGPLPASLPPAGEQLLPDLLISPHMLPLTDLEIKFQYRGRPPRALTISNPHGCRLFYSQLEATQEQVELFGPISLEQVRFPSPEDIPSDKQRFYTNQLLDVLDRGLILQLQGQDLYAIRLCQCKVFWSGPCASAHDSCPNPIQREVKTKLFSLEHFLNELILFQKGQTNTPPPFEIFFCFGEEWPDRKPREKKLITVQVVPVAARLLLEMFSGELSWSADSIRLQISNPDLKDRMVEQFKELHHIWQSQQRLQPVAQAPPGAGLGVGQGPWPMHPAGMQ
fold of nuclear PLA colocalization over unstimulated cells (after 1 h CpG ODN): > 3 fold
